Here are results for 2 molecules from paper PMC2148189 (The Journal of Cell Biology, 1999).

B2: His6–l-afadin-C199 (domain or fragment, UniProt O35889-1 1631-1829, looked up)
chain: DRVRQEEDGRHQEEERVKRDAEEKRRQEEGYYSRLEAERRRQHEEAARRLLEPEEPGLSRPPLPQDYEPPSQSSAPSAPPPPPQRNASYLKTQVLSPDSLFTAKFVAYDDDDEEENYVPAGPNSYSGSAGTTAGTYDAPRDTREKLSRSQDADLPGSSGAPENLTFRERQRLFSQGQDVSDKVKASRKLTELENELNTK

What all share (test): pull-down
The target in assay [1] is B2.
The target of assay [2] is T1, GST–ponsin-2-F (the full length) (mouse, UniProt Q62417-3 1-724).
T1 sequence (looked up): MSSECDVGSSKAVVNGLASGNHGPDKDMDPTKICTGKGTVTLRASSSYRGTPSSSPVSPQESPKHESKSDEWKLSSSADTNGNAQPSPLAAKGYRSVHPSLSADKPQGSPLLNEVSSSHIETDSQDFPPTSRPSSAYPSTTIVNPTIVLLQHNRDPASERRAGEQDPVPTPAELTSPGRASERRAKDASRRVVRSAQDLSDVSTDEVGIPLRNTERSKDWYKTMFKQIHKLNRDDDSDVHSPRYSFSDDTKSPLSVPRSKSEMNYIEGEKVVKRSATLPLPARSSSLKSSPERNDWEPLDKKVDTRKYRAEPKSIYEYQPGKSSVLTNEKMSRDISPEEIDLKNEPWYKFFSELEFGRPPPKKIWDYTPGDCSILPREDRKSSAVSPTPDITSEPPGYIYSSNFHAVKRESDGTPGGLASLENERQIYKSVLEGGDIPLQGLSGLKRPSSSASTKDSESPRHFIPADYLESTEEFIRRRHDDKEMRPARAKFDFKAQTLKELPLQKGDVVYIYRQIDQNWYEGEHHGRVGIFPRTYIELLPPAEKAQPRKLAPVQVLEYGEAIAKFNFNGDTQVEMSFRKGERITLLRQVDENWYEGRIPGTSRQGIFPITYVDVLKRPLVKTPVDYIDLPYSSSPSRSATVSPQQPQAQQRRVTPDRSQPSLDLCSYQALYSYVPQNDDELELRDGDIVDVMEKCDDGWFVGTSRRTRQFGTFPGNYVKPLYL

For assay [3], the target named is T2, GST–ponsin-2-C (the COOH-terminal half) (mouse, UniProt Q62417-3 401-724).
T2 sequence (looked up): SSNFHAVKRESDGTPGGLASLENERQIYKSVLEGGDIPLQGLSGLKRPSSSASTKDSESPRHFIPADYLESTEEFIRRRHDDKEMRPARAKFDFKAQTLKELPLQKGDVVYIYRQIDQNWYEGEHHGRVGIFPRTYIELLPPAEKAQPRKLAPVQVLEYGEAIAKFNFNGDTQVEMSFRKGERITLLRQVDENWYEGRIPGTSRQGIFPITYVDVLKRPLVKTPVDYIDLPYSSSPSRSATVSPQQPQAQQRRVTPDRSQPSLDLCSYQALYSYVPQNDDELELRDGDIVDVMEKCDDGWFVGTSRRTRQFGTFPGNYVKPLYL

B1: GST–ponsin-2-SH3(2+3) (the second and third SH3 domains) (domain or fragment, mouse, UniProt Q62417-3 543-724, looked up)
chain: AEKAQPRKLAPVQVLEYGEAIAKFNFNGDTQVEMSFRKGERITLLRQVDENWYEGRIPGTSRQGIFPITYVDVLKRPLVKTPVDYIDLPYSSSPSRSATVSPQQPQAQQRRVTPDRSQPSLDLCSYQALYSYVPQNDDELELRDGDIVDVMEKCDDGWFVGTSRRTRQFGTFPGNYVKPLYL
With B1, the binding result in assay [1] is reported as “binds”.
Regarding B2, the binding result in assay [2] and in assay [3] was “binds” in each case.
